The target of assay [1] is H3K9me2S28ph nucleosomes (individually reconstituted for quantitative measurements). Nature of the assay: MST.
Assay [2] addresses H3K9me2 nucleosomes (individually reconstituted for quantitative measurements). In words: MST.
The target in assay [3] is H3K9me2S28ph nucleosomes (individually reconstituted for quantitative measurements). Nature of the assay: MST. The source holds these as a separate data set.
Assay [4] has the same target. Nature of the assay: MST. The source holds these as a separate data set.
Assay [5] concerns the target HP1β (HP1) (UniProt P83916). Nature of the assay: eCFP-HP1 retention on H2A + H3 nucleosome library. To be noted: reference: H3K9me2 nucleosomes; sites S28.
Assay [6] deals with HP1β (HP1) (UniProt P83916). In words: eCFP-HP1 retention on immobilised nucleosome library. To be noted: reference: H3K9me2 nucleosomes; sites S28.

pKd: −log10 of the molar value. Where two headings read alike, the source gives them in different places.

“HP1 without eCFP tag (human HP1β) (from UniProt P83916 1-185) (natural protein)”: the pKd in assay [1] is 6.22; in assay [2] it was 5.62; in assay [3], 5.74; in assay [4], 5.77. Moreover, the fold stronger binding than the H3K9me2 nucleosome on 187 bp DNA in assay [1] stood at 2 fold.
For the substance histone H3 H3K9me2S28ph nucleosomes, the fold change in assay [5] came to 2.3 fold. The “other: fold enrichment over unmodified H3 nucleosomes” value in assay [6] is reported as “stronger; reference 4.8”.

The pKd is the Kd on a negative log10 scale, so that one unit is a factor of ten.

These data come from paper PMC8163371.
